The source of these data is US20250243281A1.

In general, Kd refers to the equilibrium constant for the complex coming apart. The low end stands for tighter binding, the high end for weaker binding.

For one assay, the target named is BSA (bovine) (UniProt P02769). Nature of the assay: polyspecificity ELISA, BSA-blocked control wells, 100 nM antibody.
Another assay has as its target human insulin (human) (UniProt P01308). The assay is described as follows: polyspecificity ELISA, coated insulin, 100 nM antibody.
The target of a further assay is FcRn (UniProt P55899). Nature of the assay: BLI Octet, biotinylated FcRn on streptavidin sensor, pH 5.0, global 1:1 fit.
Sequence of FcRn (P55899 24-297 limits assumed, form in doubt, chain 1 of 2): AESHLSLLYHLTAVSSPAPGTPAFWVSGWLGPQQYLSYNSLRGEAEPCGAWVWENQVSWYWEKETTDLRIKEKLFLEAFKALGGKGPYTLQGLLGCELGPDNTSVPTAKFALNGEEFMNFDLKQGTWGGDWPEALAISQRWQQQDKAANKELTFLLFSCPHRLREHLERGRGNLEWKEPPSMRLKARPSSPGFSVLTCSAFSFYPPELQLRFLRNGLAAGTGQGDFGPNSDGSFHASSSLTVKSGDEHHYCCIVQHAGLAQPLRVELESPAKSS
Sequence of FcRn (chain, as listed by the source limits assumed, form in doubt, chain 2 of 2): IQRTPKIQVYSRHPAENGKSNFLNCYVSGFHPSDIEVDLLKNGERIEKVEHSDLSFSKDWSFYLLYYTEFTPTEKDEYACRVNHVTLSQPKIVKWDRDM

Sequence of human insulin (human) (P01308 25-54 limits assumed, chain 1 of 2): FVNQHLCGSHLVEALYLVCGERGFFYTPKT
Sequence of human insulin (human) (P01308 90-110 limits assumed, chain 2 of 2): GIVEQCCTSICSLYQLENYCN
Sequence of BSA (bovine) (P02769 25-607 limits assumed): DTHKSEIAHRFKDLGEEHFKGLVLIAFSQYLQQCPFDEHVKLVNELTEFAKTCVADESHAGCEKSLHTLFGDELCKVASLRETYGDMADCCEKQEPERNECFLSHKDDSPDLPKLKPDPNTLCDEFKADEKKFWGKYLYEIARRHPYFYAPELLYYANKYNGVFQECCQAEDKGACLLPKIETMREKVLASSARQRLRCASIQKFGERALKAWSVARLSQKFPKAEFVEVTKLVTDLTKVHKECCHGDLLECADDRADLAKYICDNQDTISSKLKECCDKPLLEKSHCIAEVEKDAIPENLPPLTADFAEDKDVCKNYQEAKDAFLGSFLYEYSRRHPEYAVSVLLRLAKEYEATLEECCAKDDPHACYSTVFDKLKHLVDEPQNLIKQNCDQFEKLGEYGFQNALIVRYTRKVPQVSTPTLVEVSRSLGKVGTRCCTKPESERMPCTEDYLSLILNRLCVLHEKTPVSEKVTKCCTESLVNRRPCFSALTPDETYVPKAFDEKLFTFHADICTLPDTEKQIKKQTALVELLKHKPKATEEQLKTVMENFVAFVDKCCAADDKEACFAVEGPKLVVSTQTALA

In the assay with BSA (bovine), Ustekinumab (antibody) had an A450 nm of 0.1. In the assay with human insulin (human), this substance yielded an A450 nm of 0.16 and a Norm (signal over AdalimumAb) of 2.29 fold.

Turning to wild type human IgG1 antibody, the Kd with FcRn was found to be 0.13 nM.
